Reference: patent US20240425569A1 (VISTERRA, published 2024)
Where a chain is given by its changes, count along the chain named. Names may count otherwise. Where two headings read alike, the source gives them in different places.

What was measured:
[1] = target: T1, EDIII-DV3 (E protein domain III of dengue virus serotype DV-3) (dengue virus serotype DV-3, UniProt P27915 571-678)
T1 construct: also called DENV-3; EDIII of DV-3

[2] = target: T2, EDIII-DV1 (E protein domain III of dengue virus serotype DV-1) (dengue virus serotype DV-1, UniProt P17763 573-680)
T2 construct: also called DENV-1; EDIII of DV-1
T2 chain: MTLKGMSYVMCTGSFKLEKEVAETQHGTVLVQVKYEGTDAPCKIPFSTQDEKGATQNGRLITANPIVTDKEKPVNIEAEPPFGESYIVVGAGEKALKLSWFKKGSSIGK

[3] = target: dengue virus serotype DV-4 (live virus, representative strain not named; E protein) (dengue virus serotype DV-4); test: cell-based or functional assay
[4] = target: T1, EDIII-DV3 (E protein domain III of …); remark: listed apart in the source
[5] = target: T2, EDIII-DV1 (E protein domain III of …)
[6] = target: T3, New Guinea/1944 (NGC)* (serotype II EDIII) (Dengue virus 2); test: Kd table, method not stated; Ag DENV-2 NGC
T3 construct: isolated EDIII protein; also called EDIII of DENV-2 NGC

[7] = target: T4, Mexico/1977 (BC287/97)* (serotype IV EDIII) (Dengue virus 4); test: Kd table, method not stated; Ag DENV-4 BC2
T4 construct: isolated EDIII protein; also called EDIII of DENV-4 Mexico/1997 (BC287/97); DENV-4 BC2

[8] = target: T5, Philippines/1956 (H87)* (serotype III EDIII) (Dengue virus 3)
T5 construct: isolated EDIII protein

[9] = target: T6, EDIII-DV2 (E protein domain III of dengue virus serotype DV-2) (dengue virus serotype DV-2, UniProt P14337 573-677)
T6 construct: also called DENV-2; EDIII of DV-2

[10] = target: T7, EDIII-DV4 (E protein domain III of dengue virus serotype DV-4) (dengue virus serotype DV-4, UniProt P09866 572-679)
T7 construct: also called DENV-4

[11] = target: T7, EDIII-DV4 (E protein domain III of …); test: affinity for EDIII, table of FIG. 4; method not stated
[12] = target: T7, EDIII-DV4 (E protein domain III of …); test: affinity for EDIII-DV-4, tables of FIG. 5; method not stated
[13] = target: T7, EDIII-DV4 (E protein domain III of …); remark: listed apart in the source
[14] = target: T7, EDIII-DV4 (E protein domain III of …); remark: listed apart in the source
[15] = target: T7, EDIII-DV4 (E protein domain III of …); test: competition ELISA; column 'EDIII-DV4 [1/7]'
[16] = target: T7, EDIII-DV4 (E protein domain III of …); remark: listed apart in the source
[17] = target: T7, EDIII-DV4 (E protein domain III of …); test: competition ELISA; column 'EDIII-DV4'
[18] = target: T1, EDIII-DV3 (E protein domain III of …); test: competition ELISA
[19] = target: T2, EDIII-DV1 (E protein domain III of …); test: competition ELISA
[20] = target: T8, New Caledonia/2009 (serotype IV EDIII); test: Kd table, method not stated; Ag DENV-4 NC
T8 construct: also called ED3-DV4/NewCal09; DENV-4 NC
T8 E protein domain III (EDIII): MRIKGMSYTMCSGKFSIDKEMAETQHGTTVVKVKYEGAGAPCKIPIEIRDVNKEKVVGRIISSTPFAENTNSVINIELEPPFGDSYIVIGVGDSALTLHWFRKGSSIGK

[21] = target: T2, EDIII-DV1 (E protein domain III of …); test: SPR (FIG. 9), by context
[22] = target: T9, Singapore/2010 (serotype IV EDIII); test: Kd table, method not stated; Ag DENV-4 Sing
T9 construct: also called ED3-DV4/Sing10; DENV-4 Sing
T9 E protein domain III (EDIII): T8 E protein domain III (EDIII) with I44V, I74T

[23] = target: T10, Peru/1995 (serotype II EDIII); test: Kd table, method not stated; Ag DENV-2 Peru
T10 construct: also called ED3-DV2/Peru95; DENV-2 Peru

[24] = target: T6, EDIII-DV2 (E protein domain III of …); test: competition ELISA
[25] = target: T11, Nicaragua/2010 (serotype III EDIII)
T11 construct: also called ED3-DV3/Nicaragua10; DENV-3 Nic
T11 E protein domain III (EDIII): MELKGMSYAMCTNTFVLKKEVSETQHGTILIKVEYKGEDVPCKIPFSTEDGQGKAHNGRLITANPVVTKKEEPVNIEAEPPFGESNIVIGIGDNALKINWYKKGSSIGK

[26] = target: T12, Singapore/2008 (serotype II EDIII); test: Kd table, method not stated; Ag DENV-2 Sing
T12 construct: also called ED3-DV2/Sing08; DENV-2 Sing

[27] = target: T13, Singapore/2009 (serotype III EDIII)
T13 construct: also called ED3-DV3/Sing09; DENV-3 Sing
T13 E protein domain III (EDIII): T11 E protein domain III (EDIII) with T12Q, T14A, V40A, N94K

[28] = target: ED3-DV4/H241/Phil56 (EDIII of DENV-4 strain H241) (dengue virus serotype DENV-4, strain …, UniProt Q58HT7 572-679); test: Kd table, method not stated; Ag DENV-4 Phil
[29] = target: T1, EDIII-DV3 (E protein domain III of …); remark: listed apart in the source
[30] = target: T7, EDIII-DV4 (E protein domain III of …); remark: listed apart in the source

B1: antibody B11 (antibody, V domains shown)
VH: VKLLEQSGAELVKPGASVRLSCTAGFNIKDTYMSWVKQRPEQGLEWIGRIDPENGDTKYDPKFQGKATITADTSSNTAYLHLSSLTSGDTAVYYCSRGWEGFAYWGQGTLVTVSA
VL: ELVMTQTPASLAVSLGQRATISCRASENVDKYGNSFMHWYQQKAGQPPKLLIYRASELQWGIPARFSGSGSRTDFTLTINPVEADDVATYFCQRSNEVPWTFGGGTKLEIK
- Kd [1]: 2.98 nM
- Kd [2]: < 0.1 nM
- IC50, focus reduction neutralization test (FRNT), DV-4 [3]: 0.5 to 1.4 µg/mL

B2: mouse mAb 4E11 (antibody, V domains shown)
VH: VKLLEQSGAELVKPGASVRLSCTASGFNIKDTYMSWVKQRPEQGLEWIGRIDPANGDTKYDPKFQGKATITADTSSNTAYLHLSSLTSGDTAVYYCSRGWEGFAYWGQGTLVTVSA
VL: B1 VL with K31R, E57N, Q59E, W60S
notes: also called antibody 4E11
- Kd [4]: 21.8 nM
- Kd [5]: 0.33 nM
- Kd [6]: 5.2 nM
- Kd [7]: 40800 nM
- Kd [8]: 21.8 nM

B3: antibody B48+A98V (antibody, V domains shown)
VH: QVQLVQSGAEVKKPGASVKVSCKAGFNIKDTYMSWVRQAPEQGLEWMGRIDPENGDTKYDPKLQGRVTMTADTSTNTAYMELRSLRSDDTAVYYCVRGWEGFAYWGQGTLVTVSS
VL: DIVMTQSPASLAVSLGERATISCRASENVDKYGNSFMHWYQQKPGQPPKLLIYRASELQWGVPDRFSGSGSGTDFTLTISSLQAEDVAVYYCQRSNEVPWTFGQGTKLEIK
- Kd [9]: < 0.1 nM
- Kd [1]: 5.06 nM
- Kd [10]: 9.26 nM
- Kd [2]: < 0.1 nM
- fold improvement in binding relative to antibody B48 [11]: ~5 fold

B4: antibody D48 (antibody, V domains shown)
VH: VKLLEQSGAEVKKPGASVKVSCKASGFNIKDVYMSWVRQAPEQGLEWMGRIDPENGDTKYDPKLQGRVTMTADTSTNTAYMELRSLRSDDTAVYYCARGWEGFAYWGQGTLVTVSS
VL: B3 VL
- fold improvement in affinity relative to an antibody with a fully humanized N-terminus [12]: ~2 fold
- Kd [13]: 7.49 nM

B5: antibody D98 (antibody, V domains shown)
VH: B4 VH with V1Q, K2V, L3Q, E5V, G26A
VL: B3 VL
- Kd [14]: 16.9 nM

B6: antibody D118 (antibody, V domains shown)
VH: B4 VH with V1Q, K2V, L3Q, E5V, F27W
VL: B3 VL
- Kd [15]: 12.6 nM
- Kd [16]: 12.6 nM
- Kd [17]: 24.4 nM
- Kd [18]: 9.07 nM
- Kd [19]: < 0.1 nM

B7: antibody C88 (antibody, V domains shown)
VH: B4 VH with V1Q, K2V, L3Q, E5V
VL: B3 VL
- Kd [20]: 11.3 nM
- Kd [15]: 13 nM
- fold greater affinity than C98 [21]: ~20 fold
- Kd [16]: 13 nM
- Kd [22]: 15 nM
- Kd [23]: 0.38 nM
- Kd [6]: < 0.1 nM
- Kd [17]: 15.4 nM
- Kd [24]: < 0.1 nM
- Kd [18]: 1.06 nM
- Kd [19]: < 0.1 nM
- Kd [25]: 3.2 nM
- Kd [26]: < 0.1 nM
- Kd [27]: 1 nM
- Kd [28]: 234 nM
- Kd [7]: 10.6 nM
- Kd [13]: 13 nM
- Kd [8]: 1.5 nM
- Kd [29]: 0.97 nM
- Kd [30]: 23.8 nM
